Tests used:
MS2 coat protein [1] = test: apparent KD of MS2 coat protein, switch ON state; designed switch direction (-1 OFF switch, 1 ON switch): -1; higher = weaker reporter binding; conditions: FMN input: 0 or 200 uM; Eterna round: R93 (includes R88 designs)
Outline: (§1)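 Designed RNA switches were transcribed on-chip from Illumina sequencing clusters. They were then titrated with SNAP-549-labelled MS2 coat protein (twofold steps, 0.7 or 1.5 nM to 3 µM; 0.8–1.5 h to 10–20 min per step) in 100 mM Tris-HCl pH 7.5, 80 mM KCl, 4 mM MgCl2, without or with constant ligand. Apparent KD is the per-design median of normalised cluster binding-curve fits.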

MS2 coat protein [2] = test: apparent KD of MS2 coat protein, switch OFF state (with FMN for OFF switches, without FMN for ON switches); designed switch direction (-1 OFF switch, 1 ON switch): -1; higher = weaker reporter binding; conditions: FMN input: 0 or 200 uM; Eterna round: R93 (includes R88 designs)
Outline: as §1

Sequence: AACCUGCUAGGAUAUACAGCAGGGAUUCGAAAACCCACGAAACAUGAGGAUCACCCAUGUAGAAGGAGUAGGGA [Teainis]
- apparent KD of MS2 coat protein (MS2 coat protein [1]): 20.3 nM
- apparent KD of MS2 coat protein (MS2 coat protein [2]): 16.1 nM

Sequence: AAAAAACAUGAGGAUCACCCAUGUAAGGAUAUCUAAAAUAAAAGAAAAAUAAAGAAAAGGAGAAGGUACAUGGA [JL wbt mod 22]
- apparent KD of MS2 coat protein (MS2 coat protein [1]): 22.9 nM
- apparent KD of MS2 coat protein (MS2 coat protein [2]): 15.6 nM

Sequence: AUAGUACAUGAGGAUCACCCAUGUCAGGAUAUUGGAUAUGACAAAAAAAAAAAGUUAACGAGAAGGGACUAUAA [EX1 Malc#15]
- apparent KD of MS2 coat protein (MS2 coat protein [1]): 31.2 nM
- apparent KD of MS2 coat protein (MS2 coat protein [2]): 36.6 nM

Sequence: AAGAAGUCAGGAUAUACAAAAUAAAAGAAAAGAAAGAAAGAACAUGAGGAUCACCCAUGUAGAAGGGACAAGAA [Nerikare]
- apparent KD of MS2 coat protein (MS2 coat protein [1]): 57.8 nM
- apparent KD of MS2 coat protein (MS2 coat protein [2]): 37.4 nM

Sequence: GGGUCACAUGAGGAUCACCCAUGUAAGGAUAUGCUAGGGAUGGAAACCAGGCCGCAACGCAGAAGGUACUAAAG [Janelle Amethyst 18 Mod 13 - Jieux - Exclusion 1]
- apparent KD of MS2 coat protein (MS2 coat protein [1]): 50.7 nM
- apparent KD of MS2 coat protein (MS2 coat protein [2]): 64.5 nM

Sequence: AAGAGGCUAGGAUAUACAUAUCUGAUGACUCAUCCUAAAACACAUGAGGAUCACCCAUGUAGAAGGAGCGAAUG [Anledi]
- apparent KD of MS2 coat protein (MS2 coat protein [1]): 19.2 nM
- apparent KD of MS2 coat protein (MS2 coat protein [2]): 16.5 nM

Sequence: GGAUGCGAAGGAUAUACAUGAGGAUCACCCAUGUGAGAGAAAAAAGUGAGAAAGAAAAGUAGAAGGUCGUGUCG [salish99-ex3-93]
- apparent KD of MS2 coat protein (MS2 coat protein [1]): 28.8 nM
- apparent KD of MS2 coat protein (MS2 coat protein [2]): 97.2 nM

Sequence: AGAGAGAGAGGAUAUACAUGAGGAUCACCCAUGUAAAAGAAAGAAAAGGGAAAGAAAAGUAGAAGGCUCAGAGA [Ruby 65]
- apparent KD of MS2 coat protein (MS2 coat protein [1]): 31.6 nM
- apparent KD of MS2 coat protein (MS2 coat protein [2]): 53.5 nM

Sequence: CUCUAGUUAGGAUAUGCAAGAAAAGAAAAGAAAGAAAAGAAGCAGAAGGAACAUGAGGAUCACCCAUGUAAGAA [EteRNA is fun!]
- apparent KD of MS2 coat protein (MS2 coat protein [1]): 49.4 nM
- apparent KD of MS2 coat protein (MS2 coat protein [2]): 62.5 nM

Sequence: AAAAAGCGAGGAUAUACGAGUCAAAGAAAAGACAAAAAGGGACAUGAGGAUCACCCAUGUAGAAGGCGCAAAAA [Fiskers exclusion D2 62% 3]
- apparent KD of MS2 coat protein (MS2 coat protein [1]): 30.5 nM
- apparent KD of MS2 coat protein (MS2 coat protein [2]): 47.1 nM

Sequence: AAAUAGUUAGGAUAUACAUGAGGAUCACCCAUGUGCACUUAUGGAGAAUAGGGUAAUGGUAGAAGGGACUAAAA [EX2 Malc#21]
- apparent KD of MS2 coat protein (MS2 coat protein [1]): 36.2 nM
- apparent KD of MS2 coat protein (MS2 coat protein [2]): 39.7 nM

Sequence: CCCUCACAUGAGGAUCACCCAUGUUAGGAUAUCUACCAGGAGCCUAAAAUGGCCCAACGGAGAAGGAACGUGCA [Arbire]
- apparent KD of MS2 coat protein (MS2 coat protein [1]): 19.2 nM
- apparent KD of MS2 coat protein (MS2 coat protein [2]): 16.9 nM

Sequence: AAUUCACAUGAGGAUCACCCAUGUAAGGAUAUCGAAAUAAAACUAAUCAAUAAACAAACGAGAAGGUACAAAAA [Exclusion 1 design 8]
- apparent KD of MS2 coat protein (MS2 coat protein [1]): 20.4 nM
- apparent KD of MS2 coat protein (MS2 coat protein [2]): 24 nM

Sequence: AUAGUACAUGAGGAUCACCCAUGUCAGGAUAUUCGAUAUGAAAAAAAAAAAAAGUUAAGGAGAAGGGACUAUAA [EX1 Malc#13]
- apparent KD of MS2 coat protein (MS2 coat protein [1]): 26.1 nM
- apparent KD of MS2 coat protein (MS2 coat protein [2]): 26.1 nM

Sequence: AGUCGGCGAGGAUAUACAUGAGGAUCACCCAUGUGAGAGCUAAAAGUGAGUCAGAAAAGUAGAAGGCGCUGACA [JL Lego Mod 6]
- apparent KD of MS2 coat protein (MS2 coat protein [1]): 96.5 nM
- apparent KD of MS2 coat protein (MS2 coat protein [2]): 94.1 nM

Sequence: AAAAAACAUGAGGAUCACCCAUGUGAGGAUAUGAAAAUACUAAGACAACAGUAAUCAAUCAGAAGGCACAACAA [JR_Exc--1_Sub1209]
- apparent KD of MS2 coat protein (MS2 coat protein [1]): 20.1 nM
- apparent KD of MS2 coat protein (MS2 coat protein [2]): 25.8 nM

Sequence: AACUGACAUGAGGAUCACCCAUGUCAGGAUAUGCUUCAUAAAAAAAAAAAAAAAUGAUGCAGAAGGGACAUGGA [Design 29 :P Sub-opt 5]
- apparent KD of MS2 coat protein (MS2 coat protein [1]): 20 nM
- apparent KD of MS2 coat protein (MS2 coat protein [2]): 24.5 nM

Sequence: AGCUAGUCAGGAUAUACGAAAAUGUAAAAAGAAGUGAAGGGACAUGAGGAUCACCCAUGUAGAAGGGACUAGAA [74%, Web mod - With 4 less C's]
- apparent KD of MS2 coat protein (MS2 coat protein [1]): 58 nM
- apparent KD of MS2 coat protein (MS2 coat protein [2]): 116 nM

Sequence: AAAAAACAUGAGGAUCACCCAUGUCAGGAUAUACGAUAAAAAAAAAAAAAAAAAAAAUGUAGAAGGGACAAAAA [Simple 1]
- apparent KD of MS2 coat protein (MS2 coat protein [1]): 60.3 nM
- apparent KD of MS2 coat protein (MS2 coat protein [2]): 60.8 nM

Sequence: CCAGGACAUGAGGAUCACCCAUGUGAGGAUAUCUGUAUUCAAUCCUCGGAUUGAAUACAGAGAAGGCACAUGGA [Ex1: 659]
- apparent KD of MS2 coat protein (MS2 coat protein [1]): 38.6 nM
- apparent KD of MS2 coat protein (MS2 coat protein [2]): 26.8 nM

Sequence: GGAACACAUGAGGAUCACCCAUGUCAGGAUAUGUAGAUAAAAAGAAAAUAAAAUAAAAACAGAAGGGACAAAAG [May 3]
- apparent KD of MS2 coat protein (MS2 coat protein [1]): 76 nM
- apparent KD of MS2 coat protein (MS2 coat protein [2]): 73.3 nM

Sequence: AAAAAGUCAGGAUAUUCGGAUAGGAAAACGAAAACCUAUCCGAAGAAGGGACAUGAGGAUCACCCAUGUAAAAA [Ecls4-II]
- apparent KD of MS2 coat protein (MS2 coat protein [1]): 48.9 nM
- apparent KD of MS2 coat protein (MS2 coat protein [2]): 46.1 nM

Sequence: AAAAUACAUGAGGAUCACCCAUGUGAGGAUAUGCAAAACCCAUAUAAAAAGGGAAAAAGCAGAAGGUACAAAAA [wbt round 1 mod 14]
- apparent KD of MS2 coat protein (MS2 coat protein [1]): 18.6 nM
- apparent KD of MS2 coat protein (MS2 coat protein [2]): 27.7 nM

Sequence: AGACAUACAGGAUAUACAUAGGAAAAAAAAAAAAAAAUUCAACAUGAGGAUCACCCAUGUAGAAGGGUAUGUCA [Ex2 Design 172: Random 2]
- apparent KD of MS2 coat protein (MS2 coat protein [1]): 65.5 nM
- apparent KD of MS2 coat protein (MS2 coat protein [2]): 69.9 nM

Sequence: AAGAACUGAGGAUAUACAAAAUAAAAGAAAAGAAAGAAAGAACAUGAGGAUCACCCAUGUAGAAGGUAGAAGAA [Maakherure Amenemhat IV]
- apparent KD of MS2 coat protein (MS2 coat protein [1]): 31.3 nM
- apparent KD of MS2 coat protein (MS2 coat protein [2]): 33.4 nM

Sequence: AAAAAGCGAGGAUAUACAUAGCUAAGACAAAUAAGCAAGGGACAUGAGGAUCACCCAUGUAGAAGGCGCAAAAA [Exclusion 2-01... 60% 1]
- apparent KD of MS2 coat protein (MS2 coat protein [1]): 34.7 nM
- apparent KD of MS2 coat protein (MS2 coat protein [2]): 97.3 nM

Sequence: AUAGUACAUGAGGAUCACCCAUGUCAGGAUAUUCGAAAUGAAAAAAAAAAAAAGUGAAGGAGAAGGGACUAUAA [EX1 Malc#12]
- apparent KD of MS2 coat protein (MS2 coat protein [1]): 21.5 nM
- apparent KD of MS2 coat protein (MS2 coat protein [2]): 20.1 nM

Sequence: AAAAAGAUAGGAUAUACGUACAUGUCGAAAGACGUGAAGGGACAUGAGGAUCACCCAUGUAGAAGGGUUAAAAA [Mat - Exclusion 2 - JL mod - D91]
- apparent KD of MS2 coat protein (MS2 coat protein [1]): 185 nM
- apparent KD of MS2 coat protein (MS2 coat protein [2]): 52.4 nM

Sequence: GGAGGCGUAGGAUAUACAUGAGGAUCACCCAUGUGAGAGAAAAAAGUGAGAAAGAAAAGUAGAAGGACGUUUCG [salish99-ex3-127]
- apparent KD of MS2 coat protein (MS2 coat protein [1]): 45.4 nM
- apparent KD of MS2 coat protein (MS2 coat protein [2]): 92.1 nM

Sequence: AAAAUACAUGAGGAUCACCCAUGUGAGGAUAUUAGAAAGGGAAUAAAAUAACUUAAACUAAGAAGGCACAAAAA [Ex 1 May 28]
- apparent KD of MS2 coat protein (MS2 coat protein [1]): 18.2 nM
- apparent KD of MS2 coat protein (MS2 coat protein [2]): 27.7 nM

Sequence: AAAAAGCGAGGAUAUACAUGAGGAUCACCCAUGUGAAAAAAAAAAAAAAAAAAAAAAAGUAGAAGGCGCAAAAA [H20 RNA]
- apparent KD of MS2 coat protein (MS2 coat protein [1]): 46.4 nM
- apparent KD of MS2 coat protein (MS2 coat protein [2]): 39.2 nM

Sequence: AGCUAGUCAGGAUAUACGAACAUGUCAGGAGACGUGAAGGGACAUGAGGAUCACCCAUGUAGAAGGGACUAGCG [74%, Web mod - With 3 more G's]
- apparent KD of MS2 coat protein (MS2 coat protein [1]): 37.2 nM
- apparent KD of MS2 coat protein (MS2 coat protein [2]): 128 nM

Sequence: AGUGAGUGAGGAUAUGAGUGAACAACAAAACAAAUAACGACUCAGAAGGCACAUGAGGAUCACCCAUGUACACA [May 68]
- apparent KD of MS2 coat protein (MS2 coat protein [1]): 24 nM
- apparent KD of MS2 coat protein (MS2 coat protein [2]): 22.3 nM

Sequence: AAAAAGUAAGGAUAUAGCAAAGGUCACGAAAGUGACAAAGGCUAGAAGGUACAUGAGGAUCACCCAUGUCCAAG [Mat - Exclusion 4 - Eli mod - D100]
- apparent KD of MS2 coat protein (MS2 coat protein [1]): 30.8 nM
- apparent KD of MS2 coat protein (MS2 coat protein [2]): 16.6 nM

Sequence: AAGAAGGUAGGAUAUACUAAAGAAAUAAAAAGAAAGAAAGAACAUGAGGAUCACCCAUGUAGAAGGGCCAAGAA [Merkare]
- apparent KD of MS2 coat protein (MS2 coat protein [1]): 51 nM
- apparent KD of MS2 coat protein (MS2 coat protein [2]): 35.2 nM

Sequence: UAAAGGAUAGGAUAUACAUGAGGAUCACCCAUGUGAAUAAAUAAAAAAAUAAAAUAAAGUAGAAGGAUCAAUAA [LROPPY Exclusion 3 - v04_deltaG=3.9 break up As]
- apparent KD of MS2 coat protein (MS2 coat protein [1]): 32.2 nM
- apparent KD of MS2 coat protein (MS2 coat protein [2]): 34 nM

Sequence: AACAGUACAGGAUAUACAUGAGGAUCACCCAUGUGAGACUUAAGUGGCGUACCACAAAGUAGAAGGGUACUGGA [JL Maslow Revisted mod 8]
- apparent KD of MS2 coat protein (MS2 coat protein [1]): 84.1 nM
- apparent KD of MS2 coat protein (MS2 coat protein [2]): 386 nM

Sequence: AACCAACAUGAGGAUCACCCAUGUCAGGAUAUGCAAACAACAAACAACAAACAACAAAGCAGAAGGGACAACAA [63%, Olong, 1]
- apparent KD of MS2 coat protein (MS2 coat protein [1]): 15.2 nM
- apparent KD of MS2 coat protein (MS2 coat protein [2]): 21.1 nM

Sequence: AACAGGACAGGAUAUACAUGAGGAUCACCCAUGUCACAACAAAGCAGCGCAACACAAAGUAGAAGGGUCAUGGA [Ruby 13]
- apparent KD of MS2 coat protein (MS2 coat protein [1]): 75.8 nM
- apparent KD of MS2 coat protein (MS2 coat protein [2]): 59.1 nM

Sequence: GGUUGGCGAGGAUAUACAUGAGGAUCACCCAUGUGAGAGAAAAAAGUGAGAAAGAAAAGUAGAAGGCGCUGACA [salish99-ex3-03]
- apparent KD of MS2 coat protein (MS2 coat protein [1]): 58.8 nM
- apparent KD of MS2 coat protein (MS2 coat protein [2]): 283 nM

Source: the supplement of paper PMC9170038
